Data on two molecules can be found in article PMC7615972, “Cachd1 interacts with Wnt receptors and regulates neuronal asymmetry in the zebrafish brain” (Science (New York, N.Y.), 2024).

This test addresses T1, purified mouse CACHD1 extracellular domain (CACHD1ECD) (mouse, UniProt Q6PDJ1 50-1109).
T1 construct: CACHD1, mouse, extracellular domain; Construct limits and tags are in the supplementary methods; also called mouse CACHD1ECD; source: purified recombinant
T1 sequence (looked up): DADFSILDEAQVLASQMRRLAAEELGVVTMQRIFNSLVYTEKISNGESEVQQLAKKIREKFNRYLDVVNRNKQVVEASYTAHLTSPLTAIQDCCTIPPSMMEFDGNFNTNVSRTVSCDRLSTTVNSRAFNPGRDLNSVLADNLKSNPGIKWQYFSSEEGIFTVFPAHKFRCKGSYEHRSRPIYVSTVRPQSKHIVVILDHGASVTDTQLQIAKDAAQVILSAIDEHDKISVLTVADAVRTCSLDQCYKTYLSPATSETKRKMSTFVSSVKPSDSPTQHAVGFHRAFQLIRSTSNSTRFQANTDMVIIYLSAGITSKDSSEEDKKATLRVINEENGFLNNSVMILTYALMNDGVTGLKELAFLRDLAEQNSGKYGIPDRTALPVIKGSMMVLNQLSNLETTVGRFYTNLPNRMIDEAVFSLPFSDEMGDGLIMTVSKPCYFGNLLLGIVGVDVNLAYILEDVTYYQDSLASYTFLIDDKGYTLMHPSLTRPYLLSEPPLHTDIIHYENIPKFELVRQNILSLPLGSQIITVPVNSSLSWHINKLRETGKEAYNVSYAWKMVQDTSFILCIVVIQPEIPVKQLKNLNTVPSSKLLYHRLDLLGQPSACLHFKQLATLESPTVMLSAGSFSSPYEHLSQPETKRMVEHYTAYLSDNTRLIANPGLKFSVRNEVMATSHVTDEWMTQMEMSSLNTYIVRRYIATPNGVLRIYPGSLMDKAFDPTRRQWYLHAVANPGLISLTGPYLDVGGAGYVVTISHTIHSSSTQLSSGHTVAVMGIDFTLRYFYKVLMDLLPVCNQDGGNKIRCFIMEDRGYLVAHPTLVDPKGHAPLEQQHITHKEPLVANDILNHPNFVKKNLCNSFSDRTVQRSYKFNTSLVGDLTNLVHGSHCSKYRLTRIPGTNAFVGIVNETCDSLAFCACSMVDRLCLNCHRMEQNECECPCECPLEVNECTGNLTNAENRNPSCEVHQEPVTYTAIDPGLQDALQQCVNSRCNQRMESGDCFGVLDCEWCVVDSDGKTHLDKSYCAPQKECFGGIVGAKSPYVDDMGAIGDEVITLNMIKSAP
Briefly: SPR; mouse CACHD1ECD as analyte; FZD CRDs or LRP6 fragments immobilised; equilibrium dissociation constants. Conditions: both partners purified. A general note: SPR reads the build-up and loss of mass on a sensor chip optically.

B1: mouse FZD5 cysteine-rich domain (FZD5CRD) (domain or fragment)
chain: ASKAPVCQEITVPMCRGIGYNLTHMPNQFNHDTQDEAGLEVHQFWPLVEIHCSPDLRFFLCSMYTPICLPDYHKPLPPCRSVCERAKAGCSPLMRQYGFAWPERMSCDRLPVLGGDAEVLCMDYNRSEAT
notes: Frizzled-5, mouse, cysteine-rich domain (CRD); source: purified recombinant
The molecule B1 registered a Kd of 480 ± 40 nM.

B2: human LRP6 membrane proximal fragment (LRP6_(P3E3P4E4)) (domain or fragment)
chain: VPEAFLLFSRRADIRRISLETNNNNVAIPLTGVKEASALDFDVTDNRIYWTDISLKTISRAFMNGSALEHVVEFGLDYPEGMAVDWLGKNLYWADTGTNRIEVSKLDGQHRQVLVWKDLDSPRALALDPAEGFMYWTEWGGKPKIDRAAMDGSERTTLVPNVGRANGLTIDYAKRRLYWTDLDTNLIESSNMLGLNREVIADDLPHPFGLTQYQDYIYWTDWSRRSIERANKTSGQNRTIIQGHLDYVMDILVFHSSRQSGWNECASSNGHCSHLCLAVPVGGFVCGCPAHYSLNADNRTCSAPTTFLLFSQKSAINRMVIDEQQSPDIILPIHSLRNVRAIDYDPLDKQLYWIDSRQNMIRKAQEDGSQGFTVVVSSVPSQNLEIQPYDLSIDIYSRYIYWTCEATNVINVTRLDGRSVGVVLKGEQDRPRAVVVNPEKGYMYFTNLQERSPKIERAALDGTEREVLFFSGLSKPIALALDSRLGKLFWADSDLRRIESSDLSGANRIVLEDSNILQPVGLTVFENWLYWIDKQQQMIEKIDMTGREGRTKVQARIAQLSDIHAVKELNLQEYRQHPCAQDNGGCSHICLVKGDGTTRCSCPMHLVLLQDELSCG
notes: LRP6, human, membrane proximal fragment P3E3P4E4; also called 3-4
For B2, the Kd was found to be 170 ± 10 nM.

As a reminder, the Kd is a measure of binding affinity in units of concentration.
